Laboratory results reported in patent publication US20260207767A1 (ANAVEON, published 2026).
Values belong to the binder of their own block, whether it stands above or below them.

Assays:
[1] = molecular target: T1, IL-2R CD122-CD132 on Jurkat-PD1+CD122+ cells (UniProt P14784 27-551; P31785 23-369); test: cell-based or functional assay
T1 sequence (looked up) 1: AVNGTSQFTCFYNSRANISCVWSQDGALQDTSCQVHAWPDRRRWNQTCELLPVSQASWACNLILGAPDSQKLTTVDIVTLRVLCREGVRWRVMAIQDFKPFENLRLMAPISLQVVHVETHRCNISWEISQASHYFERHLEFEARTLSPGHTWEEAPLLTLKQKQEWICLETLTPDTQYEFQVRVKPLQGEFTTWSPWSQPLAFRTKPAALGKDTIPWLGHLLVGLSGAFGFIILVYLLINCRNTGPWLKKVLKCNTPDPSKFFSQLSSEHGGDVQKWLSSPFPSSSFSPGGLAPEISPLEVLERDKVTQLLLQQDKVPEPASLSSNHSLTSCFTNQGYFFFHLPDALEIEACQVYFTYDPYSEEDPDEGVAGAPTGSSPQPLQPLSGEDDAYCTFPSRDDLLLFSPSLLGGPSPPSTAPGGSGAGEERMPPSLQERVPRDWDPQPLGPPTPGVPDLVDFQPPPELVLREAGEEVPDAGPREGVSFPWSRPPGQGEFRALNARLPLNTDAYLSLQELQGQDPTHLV
T1 sequence (looked up) 2: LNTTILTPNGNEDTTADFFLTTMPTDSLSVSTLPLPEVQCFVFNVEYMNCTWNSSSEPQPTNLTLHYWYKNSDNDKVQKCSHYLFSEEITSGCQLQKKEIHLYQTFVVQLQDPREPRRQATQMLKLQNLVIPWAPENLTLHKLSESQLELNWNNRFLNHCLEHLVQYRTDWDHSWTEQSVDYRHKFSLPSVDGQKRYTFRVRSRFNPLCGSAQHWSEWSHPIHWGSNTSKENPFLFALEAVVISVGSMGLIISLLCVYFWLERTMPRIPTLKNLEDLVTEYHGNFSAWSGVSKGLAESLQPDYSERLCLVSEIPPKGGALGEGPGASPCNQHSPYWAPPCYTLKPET

[2] = molecular target: T2, recombinant hPD-1 (construct not stated) (human, UniProt Q15116 25-167, limits assumed); test: BLI, supernatants
T2 construct: also called huPD-1; Human PD1
T2 sequence (Q15116 25-167 limits assumed): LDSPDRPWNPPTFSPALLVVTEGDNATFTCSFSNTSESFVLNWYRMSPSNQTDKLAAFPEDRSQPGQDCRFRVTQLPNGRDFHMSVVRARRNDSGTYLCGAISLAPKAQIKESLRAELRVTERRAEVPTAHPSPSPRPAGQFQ
Description: In order to remove an N-glycosylation site present in the CDR-L1, mutations were inserted in the CDR-L1 of 21A08. The first asparagine ([…], N) in CDR-L1, was replaced by a serine (Ser, S), Glutamine (Gln, Q), or Alanine (Ala, A).

B1: JLI141 (bispecific antibody, human IgG1, lambda, L234A L235A)
heavy 1: EVQLLESGGGLVQPGGSLRLSCAASGFTFSINAMTWVRQAPGKGLEWVSTISGSGFSTYYADSLKGRFTISRDNSKNTLYLQMNSLRAEDTAVYYCAKEVYGDYWGQGTLVTVSSASTKGPSVFPLAPSSKSTSGGTAALGCLVKDYFPEPVTVSWNSGALTSGVHTFPAVLQSSGLYSLSSVVTVPSSSLGTQTYICNVNHKPSNTKVDKRVEPKSCDKTHTCPPCPAPEAAGGPSVFLFPPKPKDTLMISRTPEVTCVVVDVSHEDPEVKFNWYVDGVEVHNAKTKPREEQYNSTYRVVSVLTVLHQDWLNGKEYKCKVSNKALAAPIEKTISKAKGQPREPQVYTLPPSREEMTKNQVSLTCLVKGFYPSDIAVEWESNGQPENNYKTTPPVLDSDGSFFLTSKLTVDKSRWQQGNVFSCSVMHEALHNHYTQKSLSLSPGK
light: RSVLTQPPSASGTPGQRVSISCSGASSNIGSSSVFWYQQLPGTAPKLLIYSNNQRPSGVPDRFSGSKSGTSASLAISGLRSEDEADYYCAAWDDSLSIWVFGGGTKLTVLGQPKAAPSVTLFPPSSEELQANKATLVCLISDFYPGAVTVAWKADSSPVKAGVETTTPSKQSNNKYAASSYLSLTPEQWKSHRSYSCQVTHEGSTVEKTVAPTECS
heavy 2: AIRLTQSPSSFSASTGDRVTITCKASQSVDYGGGNFHLRPRDLISNINVIVLELKGSETTFMCEYADETATIVEFLNRWITFSQSIISTLTPTSSSTKKTQLQLEHLLLDLQMILNGINNYKNPKLTRMLTFKFYMPKKATELKHLQCLEEELKPLEEVLNLAQSKGGGGDSYMNWYQQKPGKAPKLLIYAASNLESGVPSRFSGSGSGTDFTLTISSLQSEDFATYYCQQSNEDPYTFGGGTKVEIKGGGGSGGGGSGGGGSEVQLVQSGAEVKKPGESLKISCKGSGYAFTNYLIEWVRQMPGKGLEWMGVINPGSGGTNYNEKFKGQVTISADKSISTAYLQWSSLKASDTAMYYCARWRGEGYYAYFDVWGQGTTVTVSSGGGGSGGGGSEVQLLESGGGLVQPGGSLRLSCAASGFTFSINAMTWVRQAPGKGLEWVSTISGSGFSTYYADSLKGRFTISRDNSKNTLYLQMNSLRAEDTAVYYCAKEVYGDYWGQGTLVTVSSASTKGPSVFPLAPSSKSTSGGTAALGCLVKDYFPEPVTVSWNSGALTSGVHTFPAVLQSSGLYSLSSVVTVPSSSLGTQTYICNVNHKPSNTKVDKRVEPKSCDKTHTCPPCPAPEAAGGPSVFLFPPKPKDTLMISRTPEVTCVVVDVSHEDPEVKFNWYVDGVEVHNAKTKPREEQYNSTYRVVSVLTVLHQDWLNGKEYKCKVSNKALAAPIEKTISKAKGQPREPQVYTLPPSREEMTKNQVSLYCLVKGFYPSDIAVEWESNGQPENNYKTTPPVLDSDGSFFLYSKLTVDKSRWQQGNVFSCSVMHEALHNHYTQKSLSLSPGK
- EC50 value for pSTAT5 induction, Jurkat-PD-1+CD122+ cells [1]: 0.2 nM

B2: GQM289 (bispecific antibody, human IgG1, kappa, lambda, L234A L235A)
heavy 1: B1 heavy 1
light 1: not shown
heavy 2: EVQLVQSGAEVKKPGESLKISCKGSGYAFTNYLIEWVRQMPGKGLEWMGVINPGSGGTNYNEKFKGQVTISADKSISTAYLQWSSLKASDTAMYYCARWRGEGYYAYFDVWGQGTTVTVSSASTKGPSVFPLAPSSKSTSGGTAALGCLVKDYFPEPVTVSWNSGALTSGVHTFPAVLQSSGLYSLSSVVTVPSSSLGTQTYICNVNHKPSNTKVDKRVEPKSCDKTHTCPPCPAPEAAGGPSVFLFPPKPKDTLMISRTPEVTCVVVDVSHEDPEVKFNWYVDGVEVHNAKTKPREEQYNSTYRVVSVLTVLHQDWLNGKEYKCKVSNKALAAPIEKTISKAKGQPREPQVYTLPPSREEMTKNQVSLYCLVKGFYPSDIAVEWESNGQPENNYKTTPPVLDSDGSFFLYSKLTVDKSRWQQGNVFSCSVMHEALHNHYTQKSLSLSPGK
light 2: not shown
- EC50 value for pSTAT5 induction, Jurkat-PD-1+CD122+ cells [1]: 0.22 nM

B4: LTJ498 (bispecific antibody, human IgG1, lambda, L234A L235A)
heavy 1: B1 heavy 1
light: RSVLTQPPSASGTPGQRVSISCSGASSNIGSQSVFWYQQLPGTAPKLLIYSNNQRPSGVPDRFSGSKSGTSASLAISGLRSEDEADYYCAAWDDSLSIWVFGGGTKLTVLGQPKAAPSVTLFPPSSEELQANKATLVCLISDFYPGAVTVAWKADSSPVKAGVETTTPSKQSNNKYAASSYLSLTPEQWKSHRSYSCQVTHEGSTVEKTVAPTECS
heavy 2: B1 heavy 2
- EC50 value for pSTAT5 induction, Jurkat-PD-1+CD122+ cells [1]: 0.24 nM

B6: 21A08Q (antibody, V domains shown)
VH: EVQLLESGGGLVQPGGSLRLSCAASGFTFSINAMTWVRQAPGKGLEWVSTISGSGFSTYYADSLKGRFTISRDNSKNTLYLQMNSLRAEDTAVYYCAKEVYGDYWGQGTLVTVSS
VL: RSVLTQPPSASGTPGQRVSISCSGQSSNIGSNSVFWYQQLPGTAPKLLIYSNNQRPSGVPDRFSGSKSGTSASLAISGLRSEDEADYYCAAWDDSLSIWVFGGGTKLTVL
notes: position not given
- Kd [2]: 3.39 nM
- koff [2]: 0.000267 s⁻¹

B7: 21A08S (antibody, V domains shown)
VH: B6 VH
VL: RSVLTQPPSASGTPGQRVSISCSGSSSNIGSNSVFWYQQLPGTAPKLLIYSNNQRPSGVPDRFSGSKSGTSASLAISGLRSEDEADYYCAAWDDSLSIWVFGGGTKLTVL
notes: position not given; tested as supernatant
- Kd [2]: 2.47 nM
- koff [2]: 0.000184 s⁻¹

Second part, the binder after the results:

- EC50 value for pSTAT5 induction, Jurkat-PD-1+CD122+ cells [1]: 0.27 nM
B3: XWY176 (bispecific antibody, human IgG1, kappa, lambda, L234A L235A)
heavy 1: B1 heavy 1
light 1: not shown
heavy 2: B2 heavy 2
light 2: not shown

- EC50 value for pSTAT5 induction, Jurkat-PD-1+CD122+ cells [1]: 43.9 nM
B5: YPW986 (bispecific antibody, human IgG1, kappa, L234A L235A)
heavy 1: EVQLLESGGGLVQPGGSLRLSCAASGFTFSINAMTWVRQAPGKGLEWVSTISGSGFSTYYADSLKGRFTISRDNSKNTLYLQMNSLRAEDTAVYYCAKEVYGDYWGQGTLVTVSSASVAAPSVFIFPPSDEQLKSGTASVVCLLNNFYPREAKVQWKVDNALQSGNSQESVTEQDSKDSTYSLSSTLTLSKADYEKHKVYACEVTHQGLSSPVTKSFNRGECDKTHTCPPCPAPEAAGGPSVFLFPPKPKDTLMISRTPEVTCVVVDVSHEDPEVKFNWYVDGVEVHNAKTKPREEQYNSTYRVVSVLTVLHQDWLNGKEYKCKVSNKALAAPIEKTISKAKGQPREPQVYTLPPSREEMTKNQVSLTCLVKGFYPSDIAVEWESNGQPENNYKTTPPVLDSDGSFFLTSKLTVDKSRWQQGNVFSCSVMHEALHNHYTQKSLSLSPGK
light 1: RSVLTQPPSASGTPGQRVSISCSGASSNIGSQSVFWYQQLPGTAPKLLIYSNNQRPSGVPDRFSGSKSGTSASLAISGLRSEDEADYYCAAWDDSLSIWVFGGGTKLTVLSSASTKGPSVFPLAPSSKSTSGGTAALGCLVKDYFPEPVTVSWNSGALTSGVHTFPAVLQSSGLYSLSSVVTVPSSSLGTQTYICNVNHKPSNTKVDKRVEPKSC
heavy 2: B2 heavy 2
light 2: not shown
